Laboratory results taken from IntAct's records for PubMed 12023303.

B1: Transcription factor HY5-like (Arabidopsis thaliana (Mouse-ear cress)), Q8W191-1 (parent)
chain: MSLQRPNGNSSSSSSHKKHKTEESDEELLMVPDMEAAGSTCVLSSSADDGVNNPELDQTQNGVSTAKRRRGRNPVDKEYRSLKRLLRNRVSAQQARERKKVYVSDLESRANELQNNNDQLEEKISTLTNENTMLRKMLINTRPKTDDNH
partner: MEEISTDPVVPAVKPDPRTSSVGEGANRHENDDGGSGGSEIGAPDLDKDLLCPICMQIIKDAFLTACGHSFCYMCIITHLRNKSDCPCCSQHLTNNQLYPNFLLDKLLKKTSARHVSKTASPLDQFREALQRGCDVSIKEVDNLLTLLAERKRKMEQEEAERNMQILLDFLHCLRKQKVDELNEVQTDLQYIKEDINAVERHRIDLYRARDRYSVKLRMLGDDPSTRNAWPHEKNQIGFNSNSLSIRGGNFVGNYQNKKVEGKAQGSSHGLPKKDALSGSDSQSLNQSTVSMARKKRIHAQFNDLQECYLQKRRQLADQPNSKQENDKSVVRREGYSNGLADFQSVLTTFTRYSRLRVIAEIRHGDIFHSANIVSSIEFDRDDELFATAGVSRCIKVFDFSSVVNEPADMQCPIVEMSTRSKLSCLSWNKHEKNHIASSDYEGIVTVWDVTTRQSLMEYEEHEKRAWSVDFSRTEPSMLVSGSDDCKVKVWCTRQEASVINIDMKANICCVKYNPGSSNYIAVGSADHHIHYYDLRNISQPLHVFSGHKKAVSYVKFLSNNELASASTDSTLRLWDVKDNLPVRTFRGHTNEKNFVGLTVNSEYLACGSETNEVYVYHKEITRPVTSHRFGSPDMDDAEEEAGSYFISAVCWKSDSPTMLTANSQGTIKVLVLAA
B2: E3 ubiquitin-protein ligase COP1 (Arabidopsis thaliana (Mouse-ear cress)), P43254 (parent)
chain: B1 partner
partner: B1 chain

Variants of: B1
Conditions: with cop1_arath COP1, P43254

effect of a mutation on the interaction	Variant
decreasing interaction	V31A;P32A

Variants of: B2
Conditions: with HYH, Q8W191-1

effect of a mutation on the interaction	Variant
decreasing interaction	G524E
decreasing interaction	K550E
decreasing interaction	R465E
decreasing interaction	K422E
decreasing interaction	W467A
